Data from paper PMC3856062.

Biological target: CFP-SelM′ (human) (UniProt Q8WWX9)
Test: FRET or BRET; acceptor photobleaching FRET in living HeLa cells cotransfected with CFP (donor) and YFP (receptor) plasmids; region of interest bleached at 515 nm for 20 s; laser confocal microscope

Chain of UniProt Q8WWX9 (Q8WWX9 28-145): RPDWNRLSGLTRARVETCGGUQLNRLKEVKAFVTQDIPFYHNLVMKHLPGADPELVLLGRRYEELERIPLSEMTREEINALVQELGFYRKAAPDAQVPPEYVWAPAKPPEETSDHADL

FRET efficiency: 27.3% | distance between donor and receptor (FRET): 6.35 nm
Substance: YFP-Gal-1 (from UniProt P09382 1-135) (natural protein)
